From patent US6617114B1, “Identification of drug complementary combinatorial libraries” (priority 1996, dated 2003)
Where no end group is shown, it is not given here.

Experiments:
GST-UL44 = target: T1, GST-UL44 (Human cytomegalovirus, UniProt P16790); test: Enzyme Linked Spectrophotometric Assay (ELSA) for CMV UL44; format: binding
T1 construct: made in house; host or cells: E. coli DH5aF′
Protocol: IMMULON-4 (cat.#011-010-3855) 96-well microtitration test plates were purchased from Dynatech. Bovine serum, albumin (BSA) (A2153), Streptavidin alkaline phosphatase (SA-AP) (S2890), TWEEN-20 detergent (P1379), and p-nitrophenyl phosphate tablets (pNPP) (N-1891, N-2770) were purchased from Sigma. Phosphate buffered saline (PBS) (21600-010) was obtained from Gibco-BRL. Ultrapure glycerol (#16374) was purchased from USB. Biotinylated surrogate ligands were prepared as a 1 mM stock solution in the appropriate solvent (H2O or 10% acetonitrile). SA-AP was prepared as a 1 mg/ml stock solution in PBS containing 10% glycerol and stored in aliquots at −80° C.
Target protein was immobilized in microtiter wells by incubating 0.5-2.0 μg per well in 100 μl of 0.1 M NaHCO3 overnight at 4° C. […] During the 1 hour blocking period, the SA-AP:surrogate ligand conjugate was prepared by mixing 2 μg SA-AP and 50 pmol biotinylated surrogate ligand for each well of target protein. (This corresponds to a 1:1 ratio of biotinylated peptide to biotin binding sites.) The mixture was incubated at room temperature for 15-20 minutes and then diluted with Tris-buffered saline-TWEEN-20 detergent (TBST) 10 mM Tris-HCl, pH 8.0, 150 mM NaCl, 0.05% TWEEN-20 detergent such that there was 100 μl of conjugate per well. […]
After blocking, the wells were washed once with 200 μl TBST. […] The absorbance was read at 405 nm.

estrogen receptor α (ER) = estrogen receptor α (ER) (Homo sapiens, UniProt P03372); test: Phage ELISA competition on immobilized estrogen receptor
Sequence of estrogen receptor α (ER) (P03372 whole entry): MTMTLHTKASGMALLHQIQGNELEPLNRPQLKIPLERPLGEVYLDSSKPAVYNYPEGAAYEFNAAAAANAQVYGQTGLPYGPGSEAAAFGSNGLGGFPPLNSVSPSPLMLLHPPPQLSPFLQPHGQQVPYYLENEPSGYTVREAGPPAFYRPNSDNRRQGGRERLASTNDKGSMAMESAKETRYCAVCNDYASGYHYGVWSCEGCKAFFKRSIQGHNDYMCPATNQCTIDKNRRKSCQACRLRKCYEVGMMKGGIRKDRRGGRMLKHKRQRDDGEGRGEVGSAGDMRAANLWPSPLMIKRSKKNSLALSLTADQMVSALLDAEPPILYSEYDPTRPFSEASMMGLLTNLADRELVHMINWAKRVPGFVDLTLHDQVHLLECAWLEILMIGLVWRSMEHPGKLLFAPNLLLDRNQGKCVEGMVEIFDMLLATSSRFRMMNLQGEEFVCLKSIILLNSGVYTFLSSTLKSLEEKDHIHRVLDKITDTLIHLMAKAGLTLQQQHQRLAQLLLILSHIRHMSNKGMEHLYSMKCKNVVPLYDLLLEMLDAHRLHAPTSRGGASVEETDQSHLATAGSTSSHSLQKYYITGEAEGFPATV

UL44 = target: T2, UL44 (Human cytomegalovirus, UniProt P16790); test: Phage ELISA competition on immobilized GSTUL44, UL44-specific phage; format: binding; details: various concentrations of competitor
T2 construct: made in house; host or cells: E. coli DH5aF′
T2 sequence (P16790 whole entry): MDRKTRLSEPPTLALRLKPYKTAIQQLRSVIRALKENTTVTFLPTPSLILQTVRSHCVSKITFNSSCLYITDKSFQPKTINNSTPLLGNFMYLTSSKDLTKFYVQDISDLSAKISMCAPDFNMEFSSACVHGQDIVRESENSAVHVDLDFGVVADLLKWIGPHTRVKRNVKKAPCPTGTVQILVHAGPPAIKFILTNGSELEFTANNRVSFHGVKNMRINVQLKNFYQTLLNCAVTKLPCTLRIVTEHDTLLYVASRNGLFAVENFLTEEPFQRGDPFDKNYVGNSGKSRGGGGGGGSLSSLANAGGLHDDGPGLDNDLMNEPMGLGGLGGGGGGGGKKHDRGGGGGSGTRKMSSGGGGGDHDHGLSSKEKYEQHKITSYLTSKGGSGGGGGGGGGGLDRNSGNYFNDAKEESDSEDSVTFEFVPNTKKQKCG
Protocol: (§1) To map the. binding site for the UL44 specific phage displaying the constrained peptide from the X10C library, we competed this phage for binding with linear double stranded DNA. To show the specificity of binding for the substrates and the phage, both phage were competed with both substrates. Microtiter plates were coated with GSTUL44 protein and blocked as described above. Phage specific for either the GST portion or the UL44 portion of the fusion were then added to separate wells and at the same time various concentrations of either GSH or DNA were added. It is important to keep in mind that these phage were isolated from the same affinity selection run.

[1] = target: T3, GST portion of the GSTUL44 fusion (Schistosoma japonicum, UniProt P08515); test: Phage ELISA competition on immobilized GSTUL44, GST-specific phage; format: binding; details: various concentrations of competitor
T3 construct: made in house; host or cells: E. coli DH5aF′
T3 sequence (P08515 whole entry, the tested form may be a part): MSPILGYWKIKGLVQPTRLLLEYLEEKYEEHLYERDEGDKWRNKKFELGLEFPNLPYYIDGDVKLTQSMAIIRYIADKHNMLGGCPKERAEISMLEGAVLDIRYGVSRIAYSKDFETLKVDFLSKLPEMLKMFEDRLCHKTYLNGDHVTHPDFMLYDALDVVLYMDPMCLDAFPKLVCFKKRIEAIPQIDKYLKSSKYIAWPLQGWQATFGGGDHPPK
Protocol: as §1

[2] = target: T4, Agrobacterium faecalis beta-glucosidase (Agrobacterium sp., UniProt P12614); test: Phage ELISA competition with conduritol on beta-glucosidase; format: binding; details: 3 mM conduritol for 3 hours
T4 sequence (P12614 1-459): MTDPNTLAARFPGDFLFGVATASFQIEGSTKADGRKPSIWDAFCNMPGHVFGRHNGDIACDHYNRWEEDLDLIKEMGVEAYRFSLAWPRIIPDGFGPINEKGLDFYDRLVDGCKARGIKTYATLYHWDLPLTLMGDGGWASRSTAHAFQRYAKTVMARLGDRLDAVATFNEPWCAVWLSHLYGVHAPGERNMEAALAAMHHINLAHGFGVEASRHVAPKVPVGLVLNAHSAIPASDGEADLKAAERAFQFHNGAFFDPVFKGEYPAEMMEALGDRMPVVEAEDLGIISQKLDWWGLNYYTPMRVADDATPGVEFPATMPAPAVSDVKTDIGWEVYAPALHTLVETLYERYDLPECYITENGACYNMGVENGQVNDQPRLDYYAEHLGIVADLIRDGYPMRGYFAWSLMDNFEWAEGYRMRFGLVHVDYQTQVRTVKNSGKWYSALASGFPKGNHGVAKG
Protocol: For the first method of affinity purification, phage libraries were mixed with 1 μg biotinylated target protein in solution and allowed to incubate at room temperature for 4 hours. Phage:protein complexes were then captured on streptavidin paramagnetic beads (Promega, cat#Z5482) by adding beads and incubating the tubes while rotating at room temperature for 30 minutes. The complexes were then drawn to the sides of the tubes using a magnet and the beads were washed with TBST containing 5 mM biotin. Beads were washed once in the first round of panning and 3 times for each additional round. Phage were eluted and amplified using the sequential procedure described in example 3. In the second method of affinity purification, phage libraries were mixed with 1 μg biotinylated target protein that was first captured on streptavidin paramagnetic beads. After the protein was bound, the beads were washed once with TBST containing 5 mM biotin to block the remaining binding sites on streptavidin. The libraries and beads were then mixed at room temperature on a rotator for 4 hours and washed, eluted and amplified as above. Phage ELISAs were carried out by first coating a microtiter plate (Immulon4, Dynex) with 1 μg streptavidin, followed by blocking with BSA. Biotinylated protein was then added to the wells and allowed to bind to the streptavidin for 1 hour. […]

[3] = target: T5, Yeast alcohol dehydrogenase (yeast), P00330; test: cross reactivity phage ELISA
T5 chain: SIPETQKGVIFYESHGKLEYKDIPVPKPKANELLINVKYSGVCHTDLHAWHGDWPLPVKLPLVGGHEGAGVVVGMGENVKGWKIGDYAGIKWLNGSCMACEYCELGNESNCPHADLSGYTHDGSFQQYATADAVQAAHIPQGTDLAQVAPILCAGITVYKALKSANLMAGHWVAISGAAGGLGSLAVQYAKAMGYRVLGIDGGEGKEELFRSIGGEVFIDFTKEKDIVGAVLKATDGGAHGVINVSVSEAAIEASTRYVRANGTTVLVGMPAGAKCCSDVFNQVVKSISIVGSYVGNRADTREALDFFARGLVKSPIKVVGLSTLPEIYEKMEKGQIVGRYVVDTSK

[4] = target: T6, carboxypeptidase B from pig pancreas (pig), P09955; test: cross reactivity phage ELISA
T6 chain: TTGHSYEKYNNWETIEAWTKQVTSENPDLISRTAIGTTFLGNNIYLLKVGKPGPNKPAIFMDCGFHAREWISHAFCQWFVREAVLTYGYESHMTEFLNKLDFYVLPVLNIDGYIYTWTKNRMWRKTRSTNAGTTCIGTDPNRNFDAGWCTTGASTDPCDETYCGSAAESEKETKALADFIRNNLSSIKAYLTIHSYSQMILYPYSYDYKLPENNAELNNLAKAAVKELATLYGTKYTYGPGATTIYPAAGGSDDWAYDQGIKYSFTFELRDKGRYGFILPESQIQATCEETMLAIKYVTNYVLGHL

[5] = target: T7, E. coli proline tRNA synthetase (E. coli), P16659; test: tRNA charging (enzyme activity) assay, competitive in respect to proline
T7 chain: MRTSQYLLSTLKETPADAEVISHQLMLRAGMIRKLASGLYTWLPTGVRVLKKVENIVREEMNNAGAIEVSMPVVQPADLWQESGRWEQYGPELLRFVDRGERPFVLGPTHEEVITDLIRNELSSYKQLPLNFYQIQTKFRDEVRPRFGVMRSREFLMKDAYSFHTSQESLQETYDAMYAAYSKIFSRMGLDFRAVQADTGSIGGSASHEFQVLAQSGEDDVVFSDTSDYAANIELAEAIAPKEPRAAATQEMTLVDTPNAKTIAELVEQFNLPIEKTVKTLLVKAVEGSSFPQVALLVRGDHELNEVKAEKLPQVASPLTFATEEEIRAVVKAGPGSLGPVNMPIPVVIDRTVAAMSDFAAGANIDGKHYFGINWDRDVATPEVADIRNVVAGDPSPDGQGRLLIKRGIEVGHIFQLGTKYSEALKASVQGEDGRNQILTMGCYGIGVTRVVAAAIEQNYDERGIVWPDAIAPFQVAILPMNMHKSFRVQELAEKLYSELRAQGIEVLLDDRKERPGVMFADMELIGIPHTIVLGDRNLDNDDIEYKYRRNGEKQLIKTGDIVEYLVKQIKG

[6] = target: T7, E. coli proline tRNA synthetase (E. …); test: cell-based or functional assay

T1 sequence (P16790 whole entry): as the sequence (P16790 whole entry) above

## H-Ser-Gly-Ser-Gly-Glu-His-Val-Cys-Ser-Trp-Gly-Trp-Gly-Arg-Cys-OH (H-SGSGEHVCSWGWGRC-OH; cysteine pairing not given here) [non-biotinylated UL44 peptide]
GST-UL44; self-competition
  competition of biotinylated UL44 peptide binding: competed specifically

## 4-hydroxytamoxifen [reference compound]
Estrogen receptor α (ER)
  competition with ER binding phage selected in the absence of estradiol: does not inhibit

## Biotin-H-Ser-Gly-Ser-Gly-Glu-His-Val-Cys-Ser-Trp-Gly-Trp-Gly-Arg-Cys-OH [UL44 BioKey]
GST-UL44; tested on streptavidin, GST-UL44, GST, GST-SrcSH3
  specificity of binding of biotinylated peptide: binds specifically to UL44

## N[C@@H](CCC(=O)N[C@@H](CS)C(=O)NCC(=O)O)C(=O)O [GSH, glutathione]
UL44
  binding of UL44 specific phage (X10C peptide) to GSTUL44 in presence of competitor: no effect
[1]
  binding of GST specific phage to GSTUL44 in presence of competitor: competed in a dose dependent fashion

## W L D G L P L Y H E V (WLDGLPLYHEV) [Peptide 5]
Estrogen receptor α (ER); phage selected with estradiol, 100 μM tamoxifen, nafoxidine, clomiphene
  effect of antiestrogens on phage binding to ER: S S L T S R D F G S W Y A S R * (SEQ ID NO:156)

## O[C@@H]1[C@H](O)[C@@H](O)C=C[C@H]1O [conduritol]
[2]
  binding of phage from group 1 after conduritol: unaffected
  binding of phage from group 2 after conduritol: inhibited

## SSWQGNVLLGNWISR (modifications not checked)
[3]
  fold ELISA signal on the specific target vs any other target tested: > 10 fold

## SSNYWWQSPVLSRHSR (modifications not checked)
[3]
  fold ELISA signal on the specific target vs any other target tested: > 10 fold

## SSWGDYFNWRDGLSR (modifications not checked)
[4]
  fold ELISA signal on the specific target vs any other target tested: > 10 fold

## SVSVGMKPSPRP (modifications not checked)
[3]
  fold ELISA signal on the specific target vs any other target tested: > 10 fold

## SRLLEVSPGWWQMSR (modifications not checked)
[4]
  fold ELISA signal on the specific target vs any other target tested: > 10 fold

## SSLLNESRLQWSTSR (modifications not checked)
[3]
  fold ELISA signal on the specific target vs any other target tested: > 10 fold

## SSSFKPWPIYLGSSR (modifications not checked)
[3]
  fold ELISA signal on the specific target vs any other target tested: > 10 fold

## SRQVEVFKPWPVYSR (modifications not checked)
[3]
  fold ELISA signal on the specific target vs any other target tested: > 10 fold

## SSFRELKPGWWSYSR (modifications not checked)
[4]
  fold ELISA signal on the specific target vs any other target tested: > 10 fold

## SRVCAIWPDLDGCSR (not fully specified; cysteine pairing not given here) [non-biotinylated ProRS peptide]
[5]
  Ki: > 500 µM
[6]
  charging assay (enzymatic activity of the target): 50 % inhibition
